Assay results as given in article PMC6424025, “Human DNA polymerase delta is a pentameric holoenzyme with a dimeric p12 subunit” (Life Science Alliance, 2019).
Where two headings read alike, the source gives them in different places.

Key:
PCNA (Homo sapiens) [1] = target: PCNA (Homo sapiens) (UniProt P12004); settings: cited from earlier work
PCNA (Homo sapiens) [2] = target: PCNA (Homo sapiens) (UniProt P12004); settings: cited from earlier work; remark: listed apart in the source
[3] = target: the molecule itself; assay: native gel or EMSA; 12% native PAGE, 80 V for 5 h at 4°C, 25 mM Tris base, 192 mM glycine, pH 8.8, Coomassie staining; migration compared with carbonic anhydrase or with the mutant
[4] = target: T1, human PCNA, wild type, purified (human, UniProt P12004 1-261); assay: ITC; p12 (10 μM) in the cell, PCNA (120 μM) in the syringe, 25°C, 20 mM Hepes pH 7.4, 150 mM NaCl, single-site model; p12 taken as a dimer and PCNA as a trimer; settings: both partners purified
T1 construct: Proliferating cell nuclear antigen, human; amplified from cDNA of HeLa total RNA; Treated as a trimer in the ITC analysis; also called hPCNA; proliferating cell nuclear antigen; source: E. coli BL21 DE3, purified (expressed as GST fusion, glutathione-sepharose)
T1 sequence (P12004 whole entry, the tested form may be a part): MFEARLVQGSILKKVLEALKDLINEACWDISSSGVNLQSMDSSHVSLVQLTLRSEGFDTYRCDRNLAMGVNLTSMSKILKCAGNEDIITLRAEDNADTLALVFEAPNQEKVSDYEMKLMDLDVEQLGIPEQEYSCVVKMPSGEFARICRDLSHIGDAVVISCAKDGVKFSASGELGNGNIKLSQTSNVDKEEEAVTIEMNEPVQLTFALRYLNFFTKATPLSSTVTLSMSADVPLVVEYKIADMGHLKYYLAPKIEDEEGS

[5] = target: the molecule itself; assay: ITC; p12 (10 μM) in the cell, p12 (120 μM) in the syringe, 30°C, 20 mM Hepes pH 7.4, 150 mM NaCl, single-site model; dimer to monomers
[6] = target: the molecule itself; assay: cross-linking; 1-5 μg of protein in 20 mM Hepes pH 7.5, 0.5% formaldehyde, 30 min at 25°C, 12% SDS-PAGE, Coomassie

PCNA (Homo sapiens), sequence (P12004 whole entry): as the sequence (P12004 whole entry, the tested form may be a part) above

For “DNA polymerase delta holoenzyme (from UniProt P28340)”, the Kd (PCNA (Homo sapiens) [1]) is given as 7.1 nM.

In the case of “DNA polymerase delta core (from UniProt P28340)”, the Kd (PCNA (Homo sapiens) [2]) is listed as 73 nM.

B1: Cdm1 of Schizosaccharomyces pombe, wild type, purified (natural protein, S. pombe, UniProt O59835 1-160, looked up)
chain: MKKRTTQAKKSGQNTNIRDVFPHVVRSNSSQSHIGKKVSSEQSPTPDVTITTKTLDERIKEDDELSKEVEEAWNQIMAERISEPIHCENITKVEFILHHFDTTARYGPYLGMTRMQRWKRAKNFNLNPPETVGKILMLEEADEENRKRESLFYDLQTIPG
notes: Cdm1, fourth subunit of DNA polymerase delta, S. pombe; 160 aa, 18.6 kD; PCR-amplified from genomic DNA; also called wild-type Cdm1; source: E. coli BL21 DE3, purified (bacterial overexpression from pNA716)
B1: binds [3].

B2: p12 subunit of human DNA polymerase delta, wild type, purified, GST tag cleaved off (natural protein, UniProt Q9HCU8 1-107, looked up)
chain: MGRKRLITDSYPVVKRREGPAGHSKGELAPELGEEPQPRDEEEAELELLRQFDLAWQYGPCTGITRLQRWCRAKQMGLEPPPEVWQVLKTHPGDPRFQCSLWHLYPL
notes: DNA polymerase delta subunit 4 (p12), human; PCR product from pCOLA-hPold234; also called untagged p12; wild-type p12; source: E. coli BL21 DE3, purified (glutathione-sepharose; GST cleaved by PreScission protease); not shown: GST, N-terminal, cleaved
In the case of B2, the Kd [4] is reported as 10 µM, the Kd [5] is reported as roughly 146 nM and the dH [5] is reported as -1.82 kcal/mol. The “stoichiometry N” value [5] was roughly 0.6 and the “stoichiometry N” value [6] was 2.

B3: p12 L104A, Y105A mutant, purified, GST tag cleaved off (natural protein, human, UniProt Q9HCU8 1-107, looked up)
chain: MGRKRLITDSYPVVKRREGPAGHSKGELAPELGEEPQPRDEEEAELELLRQFDLAWQYGPCTGITRLQRWCRAKQMGLEPPPEVWQVLKTHPGDPRFQCSLWHAAPL
notes: DNA polymerase delta subunit 4 (p12), human; PCR product from pCOLA-hPold234; also called PIP-motif p12 mutant; source: E. coli BL21 DE3, purified (glutathione-sepharose; GST cleaved by PreScission protease); not shown: GST, N-terminal, cleaved
In the case of B3, the “stoichiometry N” value [6] is reported as 2.
